Measurements from patent US20250186614A1, “COMPACT DRUG RESPONSIVE DOMAINS FOR REGULATION OF FUNCTION/ABUNDANCE AND DELIVERY OF POLYPEPTIDE PAYLOADS” (OBSIDIAN THERAPEUTICS, INC., priority 2022, published 2025).
Positions count from the first letter of the chain named. In names and notes the source's numbering stands.

B1: FKBP-276: FKBP13 DRD-AcGFP construct of Table 10 (protein)
chain: HCPIKSRKGDVLHMHYTGKLEDGTEFDSSLPRNRPFVFSLGTGERIKGWDQGLLGMCEGEKRKLVIPSELGYGERGWPPKIPGGATLVFEVELLKIER
modifications: Description of sequence: Construct Name: FKBP-276; Mutation(s): Q72R Q74R Q84E A117W V85R
B2: FKBP-277: FKBP13 DRD-AcGFP construct of Table 10 (protein)
chain: B1 chain with K95Y
modifications: Description of sequence: Construct Name: FKBP-277; Mutation(s): Q72R Q74R Q84E A117W V85R K135Y
B3: FKBP-278: FKBP13 DRD-AcGFP construct of Table 10 (protein)
chain: B1 chain with E90F
modifications: Description of sequence: Construct Name: FKBP-278; Mutation(s): Q72R Q74R Q84E A117W V85R E130F
B4: FKBP-279: FKBP13 DRD-AcGFP construct of Table 10 (protein)
chain: B1 chain with K80I
modifications: Description of sequence: Construct Name: FKBP-279; Mutation(s): Q72R Q74R Q84E A117W V85R K120I
B5: FKBP-280: FKBP13 DRD-AcGFP construct of Table 10 (protein)
chain: B1 chain with K80I, K95Y
modifications: Description of sequence: Construct Name: FKBP-280; Mutation(s): Q72R Q74R Q84E A117W V85R K135Y K120I
B6: FKBP-281: FKBP13 DRD-AcGFP construct of Table 10 (protein)
chain: B1 chain with K80I, E90F
modifications: Description of sequence: Construct Name: FKBP-281; Mutation(s): Q72R Q74R Q84E A117W V85R E130F K120I
B7: FKBP-282: FKBP13 DRD-AcGFP construct of Table 10 (protein)
chain: B1 chain with R34W
modifications: Description of sequence: Construct Name: FKBP-282; Mutation(s): Q72R Q74W Q84E A117W V85R
B8: FKBP-283: FKBP13 DRD-AcGFP construct of Table 10 (protein)
chain: B1 chain with R34W, K95Y
modifications: Description of sequence: Construct Name: FKBP-283; Mutation(s): Q72R Q74W Q84E A117W V85R K135Y
B9: FKBP-284: FKBP13 DRD-AcGFP construct of Table 10 (protein)
chain: B1 chain with R34W, E90F
modifications: Description of sequence: Construct Name: FKBP-284; Mutation(s): Q72R Q74W Q84E A117W V85R E130F
B10: FKBP-285: FKBP13 DRD-AcGFP construct of Table 10 (protein)
chain: B1 chain with R34W, K80I
modifications: Description of sequence: Construct Name: FKBP-285; Mutation(s): Q72R Q74W Q84E A117W V85R K120I
B11: FKBP-286: FKBP13 DRD-AcGFP construct of Table 10 (protein)
chain: B1 chain with R34W, K80I, K95Y
modifications: Description of sequence: Construct Name: FKBP-286; Mutation(s): Q72R Q74W Q84E A117W V85R K135Y K120I
B12: FKBP-287: FKBP13 DRD-AcGFP construct of Table 10 (protein)
chain: B1 chain with R34W, K80I, E90F
modifications: Description of sequence: Construct Name: FKBP-287; Mutation(s): Q72R Q74W Q84E A117W V85R E130F K120I
B13: FKBP-288: FKBP13 DRD-AcGFP construct of Table 10 (protein)
chain: B1 chain with R34Q, K80I
modifications: Description of sequence: Construct Name: FKBP-288; Mutation(s): Q72R Q84E A117W V85R K120I
B14: FKBP-289: FKBP13 DRD-AcGFP construct of Table 10 (protein)
chain: B1 chain with R34Q, K80I, K95Y
modifications: Description of sequence: Construct Name: FKBP-289; Mutation(s): Q72R Q84E A117W V85R K120I K135Y
B15: FKBP-290: FKBP13 DRD-AcGFP construct of Table 10 (protein)
chain: B1 chain with R34Q, K80I, E90F
modifications: Description of sequence: Construct Name: FKBP-290; Mutation(s): Q72R Q84E A117W V85R K120I E130F
B16: FKBP-291: FKBP13 DRD-AcGFP construct of Table 10 (protein)
chain: B1 chain with R34Q, E90N
modifications: Description of sequence: Construct Name: FKBP-291; Mutation(s): Q72R Q84E A117W V85R E130N
B17: FKBP-292: FKBP13 DRD-AcGFP construct of Table 10 (protein)
chain: B1 chain with R34Q, K95Q
modifications: Description of sequence: Construct Name: FKBP-292; Mutation(s): Q72R Q84E A117W V85R K135Q
B18: FKBP-270: FKBP13 DRD-AcGFP construct of Table 10 (protein)
chain: B1 chain with L12M, R34Q
modifications: Description of sequence: Construct Name: FKBP-270; Mutation(s): Q72R Q84E A117W V85R DRD L52M
B19: FKBP-271: FKBP13 DRD-AcGFP construct of Table 10 (protein)
chain: B1 chain with R34Q, K63R
modifications: Description of sequence: Construct Name: FKBP-271; Mutation(s): Q72R Q84E A117W V85R DRD K103R
B20: FKBP-273: FKBP13 DRD-AcGFP construct of Table 10 (protein)
chain: B1 chain with R34Q, E74G
modifications: Description of sequence: Construct Name: FKBP-273; Mutation(s): Q72R Q84E A117W V85R DRD E114G
B21: FKBP-274: FKBP13 DRD-AcGFP construct of Table 10 (protein)
chain: B1 chain with R34Q, E69K
modifications: Description of sequence: Construct Name: FKBP-274; Mutation(s): Q72R Q84E A117W V85R DRD E109K
B22: FKBP-275: FKBP13 DRD-AcGFP construct of Table 10 (protein)
chain: B1 chain with G9D, R34Q
modifications: Description of sequence: Construct Name: FKBP-275; Mutation(s): Q72R Q84E A117W V85R DRD G49D

tested on: Jurkat cells; assay: Tacrolimus dose response of FKBP13-AcGFP-mCherry constructs stably transduced into Jurkat cells, GFP MFI by flow cytometry; format: cell-based; conditions: tacrolimus; FIG. 35
Summary of the method: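 Jurkat E6-1 cells lentivirally transduced with FKBP13-AcGFP-mCherry constructs to 10-25% mCherry+ (day 5) were dosed with tacrolimus. GFP geometric MFI in mCherry+ cells was measured by flow cytometry and fitted to dose-response curves.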

Row | Molecule | FC | Peak
1 | B1 | 7.54 | 2859
2 | B2 | 61.04 | 2581
3 | B3 | 92.73 | 3425
4 | B4 | 31.33 | 3302

same assay, conditions: tacrolimus; FIG. 36

Row | Molecule | FC | Peak
5 | B5 | 68.34 | 2468
6 | B6 | 77.66 | 2905
7 | B7 | 39.54 | 2473
8 | B8 | 39.79 | 1328

same assay, conditions: tacrolimus; FIG. 37

Row | Molecule | FC | Peak
9 | B9 | 58.23 | 2441
10 | B10 | 36.71 | 2161
11 | B11 | 25.96 | 1089
12 | B12 | 47.09 | 1747

same assay, conditions: tacrolimus; FIG. 38

Row | Molecule | FC | Peak
13 | B13 | 30.10 | 3718
14 | B14 | 73.38 | 2659
15 | B15 | 92.89 | 3191
16 | B16 | 53.37 | 3859
17 | B17 | 50.68 | 3797

same assay, conditions: tacrolimus; FIGS. 33 and 34

Row | Molecule | FC
18 | B18 | 38
19 | B19 | 19
20 | B20 | 36
21 | B21 | 34
22 | B22 | 56

same assay, conditions: tacrolimus; Jurkat cells; Table 13

Row | Molecule | Fold Change
23 | B18 | 38
24 | B19 | 19
25 | B20 | 36
26 | B21 | 34
27 | B22 | 56
28 | B1 | 7.54
29 | B2 | 61.04
30 | B3 | 92.73
31 | B4 | 31.33
32 | B5 | 68.34
33 | B6 | 77.66
34 | B7 | 39.54
35 | B8 | 39.79
36 | B9 | 58.23
37 | B10 | 36.71
38 | B11 | 25.96
39 | B12 | 47.09
40 | B13 | 30.1
41 | B14 | 73.38
42 | B15 | 92.89
43 | B16 | 53.37
44 | B17 | 50.68
